We go through nine molecules from patent US10444224B2, “Method for RNA detection and quantification” (Cornell University, priority 2011, dated 2019).

In series [1] the test system is HEK293T cells expressing 5S-Spinach. In words: Live mammalian cell imaging of Spinach-tagged 5S RNA. In kind it is cell-based, human. On the procedure: HEK293 cells cultured on 24-well glass-bottom dishes were transfected with 0.2 μg of pAV-5S construct expressing full length human 5S RNA from its endogenous promoter fused through its 3′ end with either a control sequence (lambda fragment ˜400 nt) or the Spinach aptamer sequence using FuGene 6 (Roche) per manufacturer's instructions. Imaging experiments were performed 48 hours after transfection. Thirty minutes prior to experiment, HEK293 cell media was replaced with imaging media (DMEM with no phenol red or vitamins and supplemented with 25 mM HEPES, 5 mM MgSO4, and 10 μg/ml Hoechst 33342) and 20 μM DFHBI or vehicle were added to the cells to promote RNA-fluorophore complex formation. To induce stress granule formation, cells were treated with 100 mM MgSO4 or 600 mM sucrose for 30 minutes prior to imaging. Live fluorescence images of HEK293 cells were taken with a CoolSnap HQ2 CCD camera through a 100× oil objective mounted on a Nikon TE2000 microscope and analyzed with the NIS-Elements software. A filter cube typically used for fluorescein/EGFP with sputter coated excitation filter 470/40, dichroic mirror 495 (long pass), and emission filter 525/50 (Chroma Technology) was used to detect Spinach.

For series [2] the following is noted: literature value used as reference; cited from earlier work.
Series [3] in a line: Tolerance of Spinach stem-loop 2 to mutation, assayed by DFHBI fluorescence. In kind it is biochemical. How it is done:
Secondary structure prediction was performed using Mfold online software. Mutated and truncated RNAs were created by ordering single stranded DNA templates (Integrated DNA Technologies) with the desired mutations or truncations and PCR amplifying these sequences to create double stranded DNA templates using primers which included a 5′ T7 promoter sequence. PCR products were then purified with PCR purification columns (Qiagen) and used as templates for in vitro T7 transcription reactions (Epicentre).
To determine if stem-loop 2 primarily has a structural role in Spinach, mutations were introduced at the stem-loop 2 positions shown in FIG. 11A to test the tolerance of Spinach to mutations at these positions. This was assayed by DFHBI fluorescence. In these experiments, the minimized Spinach structure (SEQ ID NO: 8) in which stem-loop 2 is predicted to sit adjacent to the large internal loop (FIG. 11A). […] To determine if stem-loop 2 can be swapped with a different stem-loop with similar stability without perturbing Spinach-induced DFHBI fluorescence, the UUCG loop sequence was replaced with GAAA and the 4-base pair stem was replaced with a different but still complementary 4-base pair stem (FIG. 11A, SEQ ID NO: 9). […] However, when mismatched bases were inserted in the stem region to prevent the formation of a duplex, DFHBI fluorescence was lost (FIG. 11B).

The nature of series [4]: Magnesium dependence of 24-2-DFHBI fluorescence. The series is classed as biochemical. From the text: FIGS. 3A-C illustrate the secondary structures of three RNAs: the original 24-2 structure (3A, SEQ ID NO: 5), a minimized structure 24-2-min (3B, SEQ ID NO: 7), and a first generation derivative of 24-2, designated “Spinach” (3C, SEQ ID NO: 6). RNA structure is shown as predicted by Mfold web-based software (Zuker, “Mfold Web Server for Nucleic Acid Folding and Hybridization Prediction,” Nucl. Acids Res. 31(13): 3406-3415 (2003), which is hereby incorporated by reference in its entirety). In FIG. 3A, bases that could be removed without significant loss in fluorescence are indicated in purple, which includes several bases from the largest loop and largest stem. A-U, G-U and any mismatched base pairs were mutated to G-C base pairs and tested for their effect on 24-2 fluorescence. G-C mutations that reduced 24-2 fluorescence are indicated in red, those which had no effect are indicated by asterisk (*), and those which increased the fluorescence of 24-2 are indicated in green. Base substitutions indicated by an asterisk (*) helped to validate structural predictions because substituting one base pair for another (e.g. A-U for G-C) had negligible effect or increased fluorescence. […] FIG. 3D illustrates the magnesium dependence of 24-2-DFHBI fluorescence. The fluorescence of the 24-2-DFHBI complex was measured at pH 7.4 in the presence of increasing magnesium concentrations. […]

Series [5] in a line: Excitation and emission spectra of the 24-2-DFHBI complex. The series is classed as physicochemical. Conditions: 24-2 bound to DFHBI. From the text:
Unless otherwise stated, all chemistry reagents were purchased from Acros Organics and all cell culture reagents were purchased from Invitrogen. Commercially available starting reagents were used without further purification. DFHBI was synthesized as described in PCT Application Publ. No. WO/2010/096584 to Jaffrey and Paige; Paige and Jaffrey, “RNA Mimics of Green Fluorescent Protein,” Science 333(6042):642-646 (2011), each of which is hereby incorporated by reference in its entirety. Flash chromatography was conducted with 200-400 mesh silica gel 60 (EMD) and with ACS or HPLC grade solvents (Fisher). NMR spectra were recorded on a Bruker DMX-500 spectrometer at 500 MHz. Chemical shifts were reported as parts per million (ppm) downfield from an internal tetramethylsilane standard ([…] for ^1H NMR) or from solvent references. […] UPLC was performed at a flow rate of 0.5 ml/min (monitored with a PDA from 210-500 nm) using a Waters C18 column. Absorbance spectra were recorded with a Thermo Scientific NanoDrop 2000 spectrophotometer with cuvette capability. Fluorescence excitation and emission spectra were measured with a Perkin Elmer LS-55 fluorescence spectrometer.
After eight rounds of SELEX at pH 8.0 using DFHBI-agarose, clones were identified that switched on DFHBI fluorescence. […]

Series [6] in a line: Spinach-based RNA sensor fluorescence in response to guanine. The series is classed as biochemical.

Residue numbers refer to the chain shown, from its start. Entries after “also recorded” stand apart in the source; their conditions may differ.

For the molecule `Cc1c(-c2cc(NS(=O)(=O)c3ccccc3Cl)n(C)n2)sc2ccc(Cl)cc12` [ML-60218], the “effect on 5S-Spinach fluorescence” value in series [1] (Pol III inhibitor treatment) was “reduces 5S-Spinach fluorescence to baseline levels”.

As for `Cc1cc2cc3cc(C)c(N)cc3nc2cc1N` [acridine yellow], the “absolute quantum yield of reference fluorophore” value in series [2] is recorded as 0.47.

In the case of `CCC(=C/[C@H](C)C/C=C/C(C)=C/[C@@H](C)C(=O)[C@@H](C)[C@H](O)[C@@H](C)C/C(C)=C/C(=O)O)/C=C/[C@@H]1OC(=O)C=C[C@@H]1C` [leptomycin B], the “effect on 5S-Spinach localization” value in series [1] (after washout of ML-60218) is 5S-Spinach accumulates in the nucleus.

For the molecule “SEQ ID NO: 16: mismatch stem-loop structure introduced into Spinach; three mismatched nucleotides prevent duplex formation (AUGCUUCGGACG; listed as RNA, chemistry not given here)”, the “DFHBI fluorescence of stem-loop 2 variant relative to Spinach / original stem-loop 2” value in series [3] is “reduces fluorescence intensity to baseline”.

As for lucifer yellow, the “absolute quantum yield of reference fluorophore” value in series [2] is recorded as 0.21.

B1: SEQ ID NO: 8: derivative (minimized) Spinach sequence containing a shortened stem-loop 2 (nucleic acid)
chain: GACGCGACUGAAUGAAAUGGUGAAGGACGGGUCCAGCUGCUUCGGCAGCUUGUUGAGUAGAGUGUGAGCUCCGUAACUAGUCGCGUC
modifications: listed as RNA, chemistry not given here
Take B1: the “DFHBI fluorescence of stem-loop 2 variant relative to Spinach / original stem-loop 2” value in series [3] is listed as “essentially identical fluorescence”.

B2: SEQ ID NO: 9: Spinach derivative with a replacement stem-loop at stem-loop 2 (nucleic acid)
chain: B1 chain with C37G, U38C, G39A, U41G, U42A, C43A, G44A, C46U, A47G, G48C
modifications: listed as RNA, chemistry not given here
On to B2, for which, in series [3], the “DFHBI fluorescence of stem-loop 2 variant relative to Spinach / original stem-loop 2” value is “did not reduce DFHBI fluorescence; also recorded: nearly identical fluorescence intensities”.

B3: 24-2: RNA aptamer clone from SELEX that switches on DFHBI fluorescence (nucleic acid)
chain: GGGAGACGCAACUGAAUGAAAUGGUGAAGGACGGGUCCAGGUGUGGCUGCUUCGGCAGUGCAGCUUGUUGAGUAGAGUGUGAGCUCCGUAACUAGUCGCGUCAC
modifications: listed as RNA, chemistry not given here
notes: RNA aptamer clone from SELEX that switches on DFHBI fluorescence
Take B3: in series [4] (0.1 mM magnesium), the “fraction of maximal fluorescence” value is “greater than 50%”. Moreover, in series [4] (pH 7.4), the “magnesium concentration at maximal fluorescence” value was determined as 3 mM. In series [5], this molecule registered an emission peak of 501 nm and an excitation peak of 469 nm.

B4: guanine sensor: Spinach-based turn-on RNA sensor for guanine (nucleic acid)
chain: GACGCGACUGAAUGAAAUGGUGAAGGACGGGUCCAGAUAAUCGCGUGGAUAUGGCACGCAAGUUUCUACCGGGCACCGUAAAUGUCCGACUCUUGUUGAGUAGAGUGUGAGCUCCGUAACUAGUCGCGUC
modifications: chemistry not given here
Consider B4, for which the “increase in fluorescence in the presence of guanine” value in series [6] (0.1 μM RNA, 10 μM DFHBI, 100 μM Gua, versus no guanine) came to 32 fold. The EC50 (commonly the concentration needed to bring the measured effect to its halfway point) in series [6] (dose-response, 10 μM fluorophore, read-out: half-maximal fluorescence (EC50), guanine) was 1500 nM.
